A short description of this data set: label from the status in PepcDB records.
For the sequence “MFCVSLILQTLKQPNVHRQVLAIALPMVLSNITVPLLGLVDAAVIGHLEHAWYLGGVALGSTMISVTFWLLGFLRMSTTGLTAQAHGAQNSQQLARVLLQGSVIALGLAALFLLFHRPVAELIFHFSDASSEVKTYAEAYFYIRAWSAPAALLNFVLLGWLLGTQNARAPMWMVIITNLTNIVLDLLLVLGLGLKVEGAAIASVIADYAGLLFGLLCVGRYWRQHQLPAPFSFIPSLTKELSRLVALNRDIFLRSLCLQAVFSFMTFQGAALGDDIVAANAVLMSFLMMISYGMDGFAYAMEAMVGKAIGAKDDRQLRTAMISSTFWATMICLLLSLIFLGFGSDLIQMITNIPSVQATAEHYLPWLVAMPLIAVWCFLLDGVFIGATKGKEMRNSMAVSAVAFFAIYGFMTHYGNHALWLAMLSFMALRGFTLGATFYTQWRAGTFLPARFSI”, the protein production result was “failed”.

In the case of “MFDLSSIVDNEQTSDALEDVVMGLIINAGQARSLAYNALKQAKAGDFAQADELMAQSRSALNDAHLVQTQLIEADQGEGKTKVTLVLVHAQDHLMNAMLARELITELIELHQKIQ”, the protein production result is “failed”.

Take “MFEQIIAILFPVMSLVLIGYLIGLWLKPDFRPINRINMEAFVPALVFSSLVNMPLDTQQTPLLLAALVAVLLPGILMLLICRLGRWSFKTWAPLHMFRNSGNLAIPLFTYAFGETALPSAVLLFVVSMCLHISLGVAMLSKGSVLKTVLSAPVFLASSLALLLNLSGVSIWSPLYNATALLGQAAVPVMLLSLGSQMINLRLAGLKVGLVSTAQSLLTGACAFTVIYFFIPLPPLQLQMMVLFTMLPPAVMNYLFAERYHIEPTQVAAMVLFGNFFSLLSLPILLFIALSL”: the protein production entry is recorded as “failed”.

“MFESLGFEETTAKEISVLLGLSLGVLFGLLAERTRFCFRRAVVGEDARQAAGVWFTALAVAILGTQASVASGLIGFADHRLLSSDLPVLAVVLGGLMFGAGMVLTRGCISRLTVLGGTGNLRALTVLLVFAVVAHAMLKGVLAPLRTSLGAVTVDLGETVSLAALPGGAALWTALLALASLLIAARSGNRALPLLGAALIGLLVPLGWVGTGYVLFDEFDPITMESLSFTAPAADTLFYTIASTSIAPGFGTGLVGGVLLGALAAALLFGSFRWQSFDSPRQTGRYLAGATLMGMGGVLAGGCTLGAGLAGIPTLSLAALLALTAIALGARLTDAALNAASSGSAGYPATPGQQPAE”: the protein production result is recorded as “failed”.

Take “MFFSEARARSRTWEASPSEHRKWVEVFKACDEDHKGYLSREDFKTAVVMLFGYKPSKIEVDSVMSSINPNTSGILLEGFLNIVRKKKEAQRYRNEVRHIFTAFDTYYRGFLTLEDFKKAFRQVAPKLPERTVLEVFREVDRDSDGHVSFRDFEYALNYGQKEA”: the protein production result was “failed”.

Take “MFGYRSNVPKVRLTTDRLVVRLVHDRDAWRLADYYAENRHFLKPWEPVRDESHCYPSGWQARLGMINEFHKQGSAFYFGLFDPDEKEIIGVANFSNVVRGSFHACYLGYSIGQKWQGKGLMFEALSAAIRYMQRTQHIHRIMANYMPHNKRSGDLLARLGFEKEGYAKDYLLIDGQWRDHVLTALTTPDWTPGR”: the protein production entry is listed as “failed”.

With “MFIAIHSQSFFSPEMDMVASRDRRPPPATIRREPFQLIRIKAAGLAAEGVNAMTSVFTRSAVACAIALAAAAISQAGAQGLKKYESGTKEFWTNPPPDWFLGDETEAQKGLAPPAGPPTGSSDAELAAMIKKIKLPPGFKIEVYASGVLSARQMAWGDNGTLFVGSFGVGSVYAITDKDGKKQVKTILKGLKMPTGLAFRDGALYVVDIDKLIRYDNAEANLDNLGSGKVVYDDMPSYVAHGWKYLAADKDGWFYVPFGPPFNIGIPPTSVSQIRRVDPKTGNAEIVALGVRNSVGGDVDPRSGKYWFTENARDWISDDMPSDKLNMISKLGEHFGYPYCHQGDMPDPKFAMGHKCSEFTPPVLNLGAHVAPLGMKFYTGDQFPAEYKNNIFIAEHGSWNRHKYQGGLIKRVIADPDGKNAKQEDFATGWIEGDQGYLGRPADIVLAKDGSMLVADDWAGAIYRISYSK”, the protein production entry is recorded as “failed”.

As for “MFIERMTNLAQGLVVAAVHAGSIAEEMEIECGDQILAIDGQEIGDIIDFQYLTAEDEFTLLLEKAGGELWELEIERSYGEELGLEVQAVSSHGLKLCRNNCIFCFVAQMPPGMRASLYDKDDDYRLSLTQGSFITLSNLDEDEFERILKFHFSPLYISVHAWDAEARVRLMKNPRAGDLSSQLKRLAGAGIQIHSQIVLVPGYNDGEVLEQTVRELGNLHPSVQSIAVVPVGLTKHRANLPDLRPFTPEEAWSILAKGEMWQKEYRRKTGRSLVYFSDEFYASAGRDYPSIEIYDDFAQLENGVGMASKFRQEFDYALQSLPPAIPQRKVHLITGVSAAPFFEDLLKKLTPIEGLTVQRHTIINSFFGPTVTVAGLLTAQDIAGQIGNIKGEIFLIPRVMLKADEEVFLDDRSVEWLAEELQGIPLVVENQGRAFLEAVTGLDLEGEDCE”, the protein production result was “failed”.

Turning to “MFISDKSRPTDFYKDDHHNSSTTSTTRDMMIDVLTTTNESVDLQSHHHHNHHNHHLHQSQPQQQILLGESSGEDHEVKAPKKRAETWVQDETRSLIMFRRGMDGLFNTSKSNKHLWEQISSKMREKGFDRSPTMCTDKWRNLLKEFKKAKHHDRGNGSAKMSYYKEIEDILRERSKKVTPPQYNKSPNTPPTSAKVDSFMQFTDKGFDDTSISFGSVEANGRPALNLERRLDHDGHPLAITTAVDAVAANGVTPWNWRETPGNGDDSHGQPFGGRVITVKFGDYTRRIGVDGSAEAIKEVIRSAFGLRTRRAFWLEDEDQIIRCLDRDMPLGNYLLRLDDVCKTHLAGLAIRVCHYDESNQLPVHSEEKIFYTEEDYREFLARQGWSSLQVDGFRNIENMDDLQPGAVYRGVR”, the protein production entry is recorded as “failed”.

Consider “MFKAPFSFDGRIRRIEYFLSGIIGGIVFGVAYSLGLATLFLGAAAGSAGGSLFGILIGIVAGIASIWFSLAQGVKRLHDLNKSGWLILICCVPIIGWVFSLYMLFADGTVGPNQYGEDPKNRMPYQPQPTSVNVTVNVSRETPAEAPAEEEKTEKAE”, for which the protein production result is reported as “failed”.

Consider “MFKPQGLYDYICQQWQEEILPSLCDYIKIPNKSPHFDAKWEEHGYMEQAVNHIANWCKSHAPKGMTLEIVRLKNRTPLLFMEIPGQIDDTVLLYGHLDKQPEMSGWSDDLHPWKPVLKNGLLYGRGGADDGYSAYASLTAIRALEQQGLPYPRCILIIEACEESGSYDLPFYIELLKERIGKPSLVICLDSGAGNYEQLWMTTSLRGNLVGKLTVELINEGVHSGSASGIVADSFRVARQLISRIEDENTGEIKLPQLYCDIPDERIKQAKQCAEILGEQVYSEFPWIDSAKPVIQDKQQLILNRTWRPALTVTGADGFPAIADAGNVMRPVTSLKLSMRLPPLVDPEAASVAMEKALTQNPPYNAKVDFKIQNGGSKGWNAPLLSDWLAKAASEASMTYYDKPAAYMGEGGTIPFMSMLGEQFPKAQFMITGVLGPHSNAHGPNEFLHLDMVKKLTSCVSYVLYSFSQKK”, for which the protein production entry is recorded as “not failed”.

As for “MFKRCFSPLTLVNQLALIVMLSTAIGVAGMAVSGWLVQGVQGSAHAINKAGSLRMQSYRLLAAVPLDAKDQKLLDEMEQTAFSPELTRAAERDGQQKQLKALQDYWHNELSPRLQHAQNAHAVAEDITRFVAGLDRLVTSFDHTTELRIERVVLVHRVMAIFMALLLVFTIIWLRVRLLQPWKQLLSMARAVSQRDFTQRANISGRNEMAALGSALNNMSEELAESYAVLEQRVQEKTAGLEHKNQILSFLWQANRRLHSQAPLCERLSPVLNGLQNLTQLHDIELRVYDLEDEDNHQEFTCQSDISCDDKGCHLCPRSALPMINGGTTLKWRLTDSHTQYGILLATLPYGRHLSHDQQQLVDTLVEQLTATLALDRHQERQQRLIVMEERATIARELHDSIAQSLSCMKMQVSCLQMQGDALPESSRELLSQIRNELNCSWAQLRELLTTFRLQLTEPGLRPALEASCQEFSARFGFTVKLDYQLPPRLVPSHQAIHLLQIAREAPSNALKHSHADDVVVTVTQCGKQVKLKVQDNGCGVPENAERSNHYGMIIMRDRAQSLRGDCQVRRRETGGTEVTVTFIPETNFTETQGDTHE”, the protein production result is reported as “failed”.

Turning to “MFKSVQQRTIQNGQVIPFYHSTNELAHIQNILQSQTPLVSLKEINKFRQLIARASVGEYFLIQSGDCAENFYECDKDTTHAKLDFIRHLATFFHQKTGCSVIQVGRIARQYAKPRSNQYEICQNKRIYSYFGGMINQSQETQRRPNPWRILLSYNCSASIYRKINQWNRGINPEQKIYTSQEAFLFNYEQSLTRWDERTGLYYNLSTHFPWLGKRTVSSLQHINHLKKIANPIAVKIGPDTPIKNLVKVINELDPSYIPGRITLIPELGAQNVYHILPQLIDAVKRTDRTVLWSCDPMHGNTETLSSGIKIRKLSNIVEEIKNSFFIHRKMGSQLNAIHLEATHQNVTECMDYKSSHCESISDLKKNYKNLLDPRLNYAQTLHVIQCVAKYYANS”, the protein production entry is listed as “failed”.

In the case of “MFLAGAFIAVGSLYAQSSDAEWQAGVAKLKETIQTNPAQANEEAEQLIKGKNKKNVELLVAIGEVYLKAGKLPEAQEYAALAKKVNGKSALASVLEGDIAFEQKNAGLASQKYEEAIYFDPSCTEAYLRYADIYKSANAALAIEKLEQLKAQEPSNTAVDKKLAEIYYLKNDFSKAAEAYSRFAMGPTATEEDLVKYAFALFLNHDFEKSLEVANMGLKKNARHAAFNRLAMYNYTDLKRFDEAIKAADAFFTESDKADYSYLDYMYYGHLLEALKKYDEAVGQYEKAIQLDPTKTDLYKNISSAYEQKNDYKKAISAYQKYYTSLDKEHQTPDLQFQFGRLYYGAGTQTDSLTINAEERKQALMAADSVFHSIAEAAPDSYLGNFWRARANSALDPETTLGLAKPFYEEVATLLESKNDPHYNSALIECYSYLGYYYLLAIENPALKAEAMANKEKSKEYWSKILAIDSTNATAKRALDGIK”, the protein production result is recorded as “failed”.

On to “MFLFLTCKIGNRMVKLRTFINISEDLFVIRNLIGAILQGIGLAYLVPVLLAWFYPEEIPLVIYFAIPGFSCIILGWVLSKHMEKIEDVNLRQAMMASAFIWLFASLVSVIPFMGIAKMRFVDSYFETMSAWTGTGLTMMSNLESYPKILLFWRAWMQWLGGIGIVLVALTVLIRPGVAAARLYKAEARSERILPNFVNTAKIIVQIYAVLTLLGIYLYYSNGMSLFDATIHSMTGLGTGGMSSHDLSIGYFNSLAIETVTVFLMIMGATNFTVHYRMFKNRSLKEFFRDIQVRYMLYFITLIVALMTYSLVFFGHLTPIRALRESIFHAVSAITCTGFGISNLAEYPEIDKILLAILMVIGGSAGSTSGGIKLIRIVLMYQSLKWTIEQAILPKGAVIRKRVNGYEFTEEEIQEVLGFTMTYIAFLLLGTLYIMLRLGVRFADALFEVASAIGNVGLSVGITSPLLPLDIKILLTILMWVGRLEIFSTIVFIVGLAMIFSRRSKE”, for which the protein production entry is “failed”.

The record behind these values is a protein production outcome set (Wang et al. 2014).
